The nanobody polyreactivity screen of Harvey et al. (2022)

Test: yeast display, Sf9 membrane polyspecificity reagent, FACS + sequencing; frameworks hold sequencing errors
Outline: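 In a synthetic yeast display library (Saccharomyces cerevisiae BJ5465), nanobody expression was induced with galactose for 36–48 hours. FACS gates were set low and high (top ~1%) using anti-HA fluorescence for expression and streptavidin fluorescence for binding of the Sf9 membrane reagent. Each polyreactivity label is drawn from the gate of origin.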

Row | Sequence | polyreactivity (PSR sort gate)
1 | QVQLVESGGGLVQAGGSLRLSCAASGSTFTYYAMGWYRQAPGKERELVAAITFRGDSTYYADSVKGRFTISRDNAKNTVYLQMNSLKPEDTAVYYCNADSISSTYYDEDYWGQGTQVTVSS | low polyreactivity
2 | QVQLVESGGGLVQAGGSLRLSCAASGSIFGGYAMGWYRQAPGKERELVARIRGSTGSTYYADSVKGRFTISRDNAKNTVYFQMNSLKPEDTAVYYCNARYKYYRGSGMDSWGQGTQVTVSS | high polyreactivity
3 | QVQLVESGGGLVQAGGSLRLSCAASGSIFPSYAMGWYRQAPGKERELVAAINWDGGSTFYADSVKGRFTISRDNAKNTVYLQMKSLKPEDTAVYYCAAPDNYGGVGGITFWRMDYWGQGTQVTVSS | low polyreactivity
4 | QVQLVESGGGLVQAGGSLRLSCAASGRTLRRNAMGWYRQAPGKERELVAAITWSGTSTYYADSVKGRFTISRDNAKNTVDLQMNSLKPEDTAVYYCAAEVAYTDTEYFWYYYWGQGTQVTVSS | high polyreactivity
5 | QVQLVESGGGLVQAGGSLRLSCAASGFTFDNYAMGWYRQAPGKERELVAAINWSGDRTYYADSVKGRFTISRDNAKNTVYLQMNSQIPEDTAVYYCNAVTSWAGSLDYWGQGTQVTVSS | high polyreactivity
6 | QVQLVESGGGLVHAGGSLRLSCAASGSTFFLYAMGWYRQAHGKERELVAAISSDGSTYYADSVKGRFTISRDNAKHTVYLQMNSLKPEDTAVYYCAAEYTPSYYEYYYWGQGTQVTVSS | low polyreactivity
7 | QVQLVESGGGLVQAGGSLRLSCAASGSTFNSYAMGWYRQAPGKERELVAAISWSGGSTYYADSVKGRFTISRDNAKNTVYLQMNSLKPEDPAVYYCNADYWWEYAYGVDYWGQGTQVTVSS | low polyreactivity
8 | QVQLVESGGGLVQAGGSLRLSCAASGLTFDPYALGWYRQAPGKERELVATISWSTSSTYYADSVKGRFTISRDNAKNTVYLQMNSLKPEDTAVYYCNAGYIESWFLQWIEYDYWGQGTQVTVSS | high polyreactivity
9 | QVQLVESGGGLVQAGGSLRLSCAASGFTFKRNAMGWYRQAPGKERELVAAITKSGGSTYYADSVKGRFTISRDNAKNTVYLQMNSLQPEDTAVYYCNTVHYYRDYDYWGQGTQVTVSS | high polyreactivity
10 | QVQLVESGGGLVQAGGSLRLSCAPSGSTFYPNAKGWYRQAPRKERELVAAISRSGGSTYYADSVKGRFTISRDNAKNTVYLQMNSLKPEDTAVYYCAADGRSPARYDYWGQGTQVTVSS | low polyreactivity
11 | QVQLVESGGGLVQAGGSLRLSCAASGFIFPWYTMGWYRQAPGKERELVAVINQSGGSTYYADSVKGRFTISRDNAKNTVYLQMNSLKPEDTAVYYCAAKSYRGSVKLRWSERGYWGQGTQVTVSS | high polyreactivity
12 | QVQLVESGGGLVQAGGSLRLSCAASGIIIDYYAMGWYRQAPGKERELVAAITSGGSTSYADSVKGRFTISRDNAKNTVYLQMNSLKPEDTAVYYCNTEPSGYESGYWGQGTQVTVSS | low polyreactivity
13 | QVQLVESGGGLVQAGGSLRLSCAASGSILSINGMGWYRQAPGKERELVATIDGSDGTTFYADSVKGRFTISRDNAKNTVYLQMNSLKPEDTAVYYCAAENFWQTKEYDYWGQGTQVTVSS | low polyreactivity
14 | QVQLVESGGGLVQAGGSLRLSCAASGFTFKYYVMGSYRQAPGKERFVAAITGSGASTYYADSVKGRFTISRDNAKNTVFLQMNSLKPEETAVYYCNADYYAGRYRYDYWGQGTQVTVSS | high polyreactivity
15 | QVQLEETGGGLVQAGGSLRLTCAASVRTFRGNVMGWYREAPGKERELVAAINWTGSSTYYADSVKGRFTISRDNAKNSVYLQMNSLKPEDTAVYYCATRSGPHGGGLPRDYWGQGTQVTVSS | low polyreactivity
16 | QVQLVESCGGLVQAGGSLRLSCAASGITIDYYAMGWYRQAPGKERELVAAISSVGNTNYADSVKGRFTISRDNAKNTVYLQMNSLKPEDTAVYYCAARAYGQRLYRVWSGYGYWGQGTQVTVSS | high polyreactivity
17 | QVQLVESGGGLVQAGGSLRLSCAASGRIFTRYAMGWYRHAPGKERELVAAITASGGRTYYADSVKGRFTISRDNAKNTVYLQMNSLKPEDTAVYYCAATYHRYYETQDSYDYWGQGTQVTVSS | high polyreactivity
18 | QVQLVESGGGLVQAGGSLRLSCAASGRTFVSNTMGWYRQAPGKERELVAAINYSVASTNYADSVKGRFTISRDNAKNTVYLQMNSLKPEDTAVYYCNRASAGWGQGTQVTVSS | low polyreactivity
19 | QVQLVESGGGLVQAGGSLRLSCAASGFIFPYYAMGWYRQAPGKERELVAAISSGGSTYYADSVKGRFTISRDNAKNSVYLQMNSLKPEDTAVYYCAVRITYWTGEFDYWGQGTQVTVSS | high polyreactivity
20 | QVQLVESGGGLVQAGGSLRLSCAASGSIFYGNAMGWYRQAPGKERELVAAISSSGGSTYYADSVKGRFTISRDNAKNTVYLQMISLKPEDTAVYYCAADSTYYNSYDYWGQGTQVTVSS | low polyreactivity
21 | QVQLQESGGRLVQASGSIFHEPNMGWHRQAPGKERELVATISDGAITNYADSVKGRFTISRDNAKNTVYLQMNSLIPEDTAVYYCAATGGLNGALSRLEYWGQGTQVSVSS | high polyreactivity

Row | Sequence | polyreactivity (PSR sort gate)
22 | QVQLVESGGGLVQAGGSLRLSCAASGITFSGYDMGWYRQAPGKERELVADITISTGSTYYADSVKGRFTISRDNAKNTVYLQMNSLKPEDTAVYYCAADWQQDRTVVLPSWGHAYDSWGQGTQVTVSS | low polyreactivity
23 | QVQLVESGGGLVQAGGSLRLSCAASGIIFWWYTRGWYRQAPGKERELVAAISRGGNTNYADSVKGRFTISRDNAKNTVYLQMNSLKPEDTAGYYCAADRHYRFWQDDYWGQGTQVTVSS | high polyreactivity
24 | QVQLVESGGGLVQAGGSLRLSCAASGLTFGAYAMGWYRQAPGKEREFVAAITYSGGSTNYADSVKGRFTISRDNAKNTVYLQMNSLKPEDTAVYFCNAGYYSPWAFYPYAYWGQGTQVTVSS | high polyreactivity
25 | QVQLVESGGALVQAGGSLRLSCAASGRILRGNAMGWYRPAPGKERELVADINYSDGSTYYADSVKGRFTISRDNAKNTVYLQMNSLKPEDTAVYYCAKKNPLVFTSGMDYWGQGTQVTVSS | low polyreactivity
26 | QVQLVESGGGLVQAGGSLRLSCAASGRTFSIYVMGWYRQAPGKERELVAAITSGGRTYYADSVKGRFTISRDNAKNTVYLQMNSLKPEDTAGYYCAAGYWRPGQYYSRYNYWGQGTQVTVSS | high polyreactivity
27 | QVQLVESGGGLVQAGGSLRLSCAASGRIFGYNAMGWYRQAPGKERDLVAAITTSGGSTYYADSVKGRFTISRDNAKNTVYLQMNSLKPEDTAVYYCARDSLQVFYPYASDDYWGQGTQVTVSS | low polyreactivity
28 | QVQLGESGGGLVQAGGSLRLSCAASGRTIGYYAMGWYRQAPGKERELVAAISVSGTNTYYADSVKGRFTISRDNAKNTVNLQMNSLKPEDTAVYYCAARKVSGVYRAFYYWGQGTQVTVSS | high polyreactivity
29 | QVQLVESGGGLVQAGASLRLSCAASGIIFNVKAMGWYRQAPGKERELVAAITSGANTYYADSVKGRFTISRDNAKNTVYLQMNSLKPEDSAVYYCNKVGSNSVGPGYDYWGHGTQVTVSS | high polyreactivity
30 | QVQLVESGGGLVQAGGSLRLSCAASGSIIYRNAMGWYRQAPGKERELDAAISYSGTSTNYADSVKGRFTISRDNAKNTVYLQMNSLKPEDTAVYYCAARGFPHRRHSLYDYWGQGTHVTVSS | low polyreactivity
31 | QVQLVESGGGLVQAGGSLRLSCAASGIIIDSNAMGWYRQAPGKERELVADITSGGSTKYADSVKGRFTISRDNAKNTVYLQMNSLKPEDTAVYYCNADFRPADQWSYFYEMDSWGQGTQVTVSS | low polyreactivity
32 | QFQLVESGGGLVQAGGSLRLSCAASGLTIYSYSMGWYRQAPGKERELVAAITWRGGSTYYADSVKGRFTISRDHAKNTDYLQMNSVKPEDTALYYCAADPGPYGYYYWGQGNQVTVSS | low polyreactivity
33 | QVQLVESGVGLVKAGGSLRLTCAASGSIFDNYPMGWYIQAPGKERELVAAISGRGGSTYYADSVKGRFTISRDNAKNSVYLQMNSLKPEVTAVYYCNALVHQTYYDYEYWGQGTQVTVSS | high polyreactivity
34 | QVQLVESGGGLVQAGGSLRLSCAASGNTFRSYVMGWYRQAPGKERELVADISSGDGTNYADSVKGRFTISRDNAKNTVYLQMNSLKPEDTAVYYCAAEWSEESDYWGQGTQVTVSS | low polyreactivity
35 | HVQLVESGGGLVQAGGSLRLSCAAWSIFYLNAMGWYRQAPGKERELVAAISSAGSTYYADSVKGRFTISRDNAKNTVYLQMNSLKPEDTAVYYCAAYWYDSPGVTEIWYDYWGQGTQVTVSS | low polyreactivity
36 | QVQLVESGGGLVQAGGSLRLSCPASGYIFYRNAMVWYRQAPGKERELVAAITYTGGRTYYADSVKGRFTISRDNAKNTVYLQMNSLNPEDTAVYYCNADGRVFVVRPYYDYEYWGQGTQVTVSS | low polyreactivity
37 | QVQLVESGGGLVQAGGSLRLSCAASGSIFEFYAMGWYRQAPGKERELVAAITSDGGSTYYADSVKGRFTISRDNAKNTVYLQMNSLKPEDTAVYYCAKDPYALPAQINDYWGQGTQVTVSS | high polyreactivity
38 | QVQLLESGGGLVQAGGSLRLSCAASGYIFGWYTMGWYRQAPGKERELVAAISYSGGDTYYADSVKGRFTNTRDNAKNTVYLQMNSLKPEDTAVYYCAAVDPASPLGEYWGQGTQVTVSS | low polyreactivity
39 | QVQLVESGGGLVQAGGSLRLSCAASGIIFQAYAMGWYRQAPGKERELVAAISYSGGSTYYADSVKGRFTISRDNAKNTVYLQMNSLKPEDTAVYYCAATFYGYFDSVFSWGYYYWGQGTQVTVSS | low polyreactivity
40 | QVHLVESGGGLDQAGGSLRLSSASSGRIIVRNAMGCYRQAPGKERELVADISSSGGRTYYADSVKGRFTISRDNAKNTVYLQMNSLKPEDTAVYYCAASSSNNEYDYWGQGTQETVSS | high polyreactivity
41 | QVQLVESGGGLVQAGGSLRLSCAASGSNFRVNAMGWYRQAPGKERELVAASSSGGSTHYADSVKGRFTISRDNAKNTFYLQMISLKPEDTAVYYCAVRYALGPYLWYYWGQGTQVTVSS | high polyreactivity
